Test results published in IntAct's records for PubMed 21746902.

B1: t-SNARE VTI1 (Saccharomyces cerevisiae), Q04338 (parent)
chain: MSSLLISYESDFKTTLEQAKASLAEAPSQPLSQRNTTLKHVEQQQDELFDLLDQMDVEVNNSIGDASERATYKAKLREWKKTIQSDIKRPLQSLVDSGDRDRLFGDLNASNIDDDQRQQLLSNHAILQKSGDRLKDASRIANETEGIGSQIMMDLRSQRETLENARQTLFQADSYVDKSIKTLKTMTRRLVANKFISYAIIAVLILLILLVLFSKFK
partner: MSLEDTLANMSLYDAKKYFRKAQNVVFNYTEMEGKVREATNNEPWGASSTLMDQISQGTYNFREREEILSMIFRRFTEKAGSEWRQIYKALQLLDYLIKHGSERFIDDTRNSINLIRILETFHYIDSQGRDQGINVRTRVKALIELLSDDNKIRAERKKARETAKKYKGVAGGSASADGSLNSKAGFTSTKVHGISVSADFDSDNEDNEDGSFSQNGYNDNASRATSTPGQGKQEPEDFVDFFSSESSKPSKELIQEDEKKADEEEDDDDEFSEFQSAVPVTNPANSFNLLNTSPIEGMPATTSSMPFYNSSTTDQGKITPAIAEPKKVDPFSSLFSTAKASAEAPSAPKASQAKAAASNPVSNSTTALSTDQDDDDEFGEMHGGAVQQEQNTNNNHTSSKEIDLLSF
B2: Epsin-3 (Saccharomyces cerevisiae), P47160 (parent)
chain: B1 partner

Variants of: B1
Conditions: with ent3_yeast ENT3, P47160
D96R was tested, and the “effect of a mutation on the interaction” value was “disrupting interaction strength”. With E42R the “effect of a mutation on the interaction” value was “disrupting interaction strength”. For D46R, the “effect of a mutation on the interaction” value was “disrupting interaction strength”.

Variants of: B2
Conditions: with vti1_yeast VTI1, Q04338
In the case of R161E, the “effect of a mutation on the interaction” value is reported as “disrupting interaction strength”. For R157E, the “effect of a mutation on the interaction” value was “disrupting interaction strength”.
